Like-named read-outs stand apart in the source and are kept apart here.
Experiments:
U87MG spheroids = assay: 3D tumor spheroid viability assay, CellTiter-Glo 3D; format: cell-based, human; conditions: U87MG 3D spheroids; for EC50: CellTiter-Glo 3D at 96 h, n = 3
Experimental: The spheroids were incubated further under normoxia. […] After 30 min of shaking on an IKA Vibrax shaker at 500 rpm at room temperature, the luminescence in each well was measured with a Tecan microplate reader. […] All experiments were conducted in three biologically independent replicates.

[1] = Octanol-water partition coefficient (log P); format: physicochemical; conditions: shake-flask, octanol-saturated water / water-saturated octanol, shaken 24 h in the dark, room temperature; Ru in water phase by ICP-MS; ± SD from 4 concentration points
Experimental: Each complex was first dissolved in octanol-saturated water (0.5 mM, 500 μL) and centrifuged (2000 rpm, 5 min) to isolate the undissolved solid. 450 μL of the supernatant was taken out as the stock solution; after that, 5, 10, 50, 100, and 150 μL of solution were added to the 15 mL tube, and more octanol-saturated water was added to adjust the final volume to 1 mL. 1 mL of water-saturated octanol was added further, and the tubes were mildly shaken (Gesellschaft für Labortechnik mbH, type3016) for 24 h under dark conditions. After that, the solutions were centrifuged for 5 min at 2000 rpm at room temperature, and 0.5 mL of the water phase (below phase) was moved to a 15 mL centrifuge tube by an Eppendorf pipette. Then, 0.1 mL of 65% HNO3 was added into the tube using an organic pipette gun, and each solution was shaken for 1 h. 9.9 mL of MilliQ water was added into each tube, making a total volume of 10 mL. To detect the Ru content of the stock solution, 10 μL of each stock solution was mixed with 0.490 mL of 65% HNO3, and the mixture was shaken for 1 h. Then, […] of MilliQ water was added to the tube, making a total volume of 10 mL. ICP-MS measurement was performed using a NexION 2000 from PerkinElmer. The ruthenium content in each well was obtained in ppb. The partition coefficients (log P) were calculated using the following eq 3 [drawing 3] 3
where [complex]total is the concentration of the complex in the control sample (where no water-saturated octanol was added) and [complex]water is the concentration of the complex in the aqueous layer.

MCF7 cells = assay: Cellular Ru uptake by ICP-MS; format: cell-based, human; conditions: dark, 6 h, triplicate wells, ± SEM
Experimental: (§1) U87MG cells (6000), PC-3 cells (5000), and MCF7 cells (8000) were seeded in 96-well plates, each well containing 100 μL of Opti-MEM. After 24 h, 12.5 μM drugs dissolved in Opti-MEM were added to each well and the plates were incubated in a normoxic or hypoxic incubator for 6 h. After that, the drug-containing medium was removed from each well, which was washed with PBS buffer once. Then, cells were stained by Nuclear Blue (Invitrogen, R37605) for 30 min to stain all nuclei (2 drops/mL medium). After this, the dye was thereafter removed and replaced with fresh medium. The entire well was imaged with 10× objective magnification and 7 × 6 montage using epifluorescence on a Nikon TiE2000 widefield microscope with a perfect focus system and automated xy-stage. The cell number of every well was analyzed by counting the nuclei using Image-Pro Analyzer 7.0. Thereafter, the medium was removed and the cells were digested by adding 100 μL of 65% HNO3 for 30 min at room temperature. The cell lysates were transferred into a 96-deep well plate (Eppendorf, E951033502), followed by the addition of 0.9 mL of MilliQ water into each well, and the plate was then mixed well with a 1000 μL Eppendorf pipette.
(§2) The ruthenium concentration was measured in each sample by ICP-MS (NexION 2000, PerkinElmer), providing the metal content in each well in ppb. Combining the cell numbers and Ru uptake, averaging over technical triplicates, the ruthenium uptake values were finally expressed in μg Ru/million cells.

PC-3 cells = assay: Cellular Ru uptake by ICP-MS; format: cell-based, human; conditions: dark, 6 h, triplicate wells, ± SEM
Experimental: as §1, §2

U87MG cells [2] = assay: Cellular Ru uptake by ICP-MS; format: cell-based, human; conditions: dark, 6 h, triplicate wells, ± SEM
Experimental: as §1, §2

[3] = Nanoaggregation in Opti-MEM by DLS and TEM; format: physicochemical; conditions: dark; for DLS size distribution: 24 h
Experimental: DLS was used to determine the distribution of particles in complex solutions (50 μM) in Opti-MEM (Gibco complete medium 11058-021, supplemented with 0.2% v/v penicillin/streptomycin (P/S), and 1% v/v glutamine) with or without 2.5% fetal calf serum (FCS) proteins via a ZEN1600 Zetasizer Nano instrument (Malvern Instruments Limited) operated with a 633 nm laser.
The TEM experiments were carried out with a TEM JEOL 1010:100 kV transmission electron microscope using a Formvar/carbon-coated copper grid (Polysciences Inc.). For the preparation of samples, a 1 mM stock aqua solution was diluted to 50 μM by Opti-MEM, after which, each drop (15 μL) of the complex solution was deposited on a parafilm (Bemis, HS234526C). The grids (Electron Microscopy Sciences, 71137) were placed on top of the drops for 5 min and then the excess liquid on the grid was removed with filter paper and air dried for 2 h for the TEM measurement. The TEM measurements were carried out under vacuum conditions.

U87MG cells [4] = assay: Intracellular ROS generation, CellROX Deep Red, flow cytometry; conditions: 15 µM, 24 h
Experimental: The generation of ROS (reactive oxygen species) in U87MG cells was measured using a ROS deep red fluorescence indicator (Abcam, ab186029). U87MG (1 × 10^5, 1 mL) were seeded into 12-well plates and incubated for 24 h in the dark under normoxia. The cells were then treated with 15 μM complexes with Opti-MEM, Λ-[1]Cl2, Δ-[1]Cl2, cisplatin, or Rose Bengal. There are two groups for each drug (dark + light). After 24 h of incubation under normoxia, the plate was washed with cold PBS once, and cells were trypsinized, harvested, and then resuspended in 150 μL of PBS. The cell suspension from the centrifuge tubes was transferred to 96-round-bottom well plates (Thermo Scientific, 268200), and the light group was irradiated for 20 min with 520 nm light (dose = 13.1 J/cm^2). After which, the Cellular ROS Deep Red dye (abcam, ab186029) was added with 1000× dilution, and cells were further stained for 1 h. Untreated cells were maintained as negative controls, whereas a 250 μM tBHP solution in Opti-MEM complete was administered as a positive control for ROS. The levels of intracellular ROS were then determined using the CytoFLEX flow cytometer. Forward versus side scatter (FSC vs SSC) gating was used to select the population of interest and avoid cell debris. A forward scatter height (FSC-H) vs forward scatter area (FSC-A) gating was used for doublet exclusion. Fluorescence measurements were acquired with the APC-A (638 nm excitation, 660/10 nm emission) channel given the known excitation/emission wavelengths of the ROS Deep Red dye (650/675 nm, respectively). All flow cytometry data were processed using FlowLogic 8.5 software.

[5] = 21% O2, dark, 24 h treatment, read-out: EC50,dark
[6] = 21% O2, green light after 24 h treatment, read-out: EC50,light

Substance	PI (EC50,dark/EC50,light) (U87MG spheroids; 21% O2)	EC50 (U87MG spheroids; [5]) [µM]	EC50 (U87MG spheroids; [6]) [µM]	log P (octanol-water partition coefficient) [1]	Ru accumulation (MCF7 cells; MCF7, hypoxia 1% O2, 12.5 µM) [µg Ru/million cells]	Ru accumulation (MCF7 cells; MCF7, normoxia 21% O2, 12.5 µM) [µg Ru/million cells]	Ru accumulation (PC-3 cells; PC-3, hypoxia 1% O2, 12.5 µM) [µg Ru/million cells]	Ru accumulation (PC-3 cells; PC-3, normoxia 21% O2, 12.5 µM) [µg Ru/million cells]	Ru accumulation (U87MG cells [2]; hypoxia 1% O2, 12.5 µM) [µg Ru/million cells]	Ru accumulation (U87MG cells [2]; normoxia 21% O2, 12.5 µM) [µg Ru/million cells]	DLS size distribution ([3]; 50 μM in Opti-MEM with 2.5% FCS)	DLS size distribution ([3]; 50 μM in Opti-MEM without FCS)	Ratio of L/D (light/dark ROS ratio) (U87MG cells [4])	Ru accumulation (MCF7 cells; MCF7, normoxia 21% O2, 12.5 µM, listed as L-[1]Cl2) [µg Ru/million cells]	Ru accumulation (PC-3 cells; PC-3, hypoxia 1% O2, 12.5 µM, listed as L-[1]Cl2) [µg Ru/million cells]	Ru accumulation (PC-3 cells; PC-3, normoxia 21% O2, 12.5 µM, listed as L-[1]Cl2) [µg Ru/million cells]	Ru accumulation (U87MG cells [2]; hypoxia 1% O2, 12.5 µM, listed as L-[1]Cl2) [µg Ru/million cells]	nanoparticle formation (DLS) ([3]; 50 μM in Opti-MEM with 2.5% FCS, 24 h (Figure S20))
[Ru(Ph2phen)2(κ^S,κ^N-(Ac-MRGDH-NH2))]Cl2 (sidechain bridge or staple) [Δ-[1]Cl2]	4.2	46	10.9	0.00 ± 0.02	0.31 ± 0.01	0.21 ± 0.01	0.63 ± 0.02	0.51 ± 0.01	0.78 ± 0.01	0.73 ± 0.01	around 100 nm	above 1 μm	8.24	–	–	–	–	–
[Ru(Ph2phen)2(κ^S,κ^N-(Ac-MRGDH-NH2))]Cl2 (sidechain bridge or staple) [Λ-[1]Cl2]	4.9	37	7.6	−0.03 ± 0.02	0.31 ± 0.01	–	–	–	–	0.74 ± 0.01	–	–	7.03	0.25 ± 0.01	0.68 ± 0.01	0.55 ± 0.03	0.84 ± 0.01	Nanoparticles of similar size were observed
